Experimental data: PMC3087504, “DNA Damage in Oocytes Induces a Switch of the Quality Control Factor TAp63α from Dimer to Tetramer”
Where a chain is given by its changes, count along the chain named.

T1: MBP-TAp63α (Mus musculus, UniProt O88898 40-680)
T1 sequence: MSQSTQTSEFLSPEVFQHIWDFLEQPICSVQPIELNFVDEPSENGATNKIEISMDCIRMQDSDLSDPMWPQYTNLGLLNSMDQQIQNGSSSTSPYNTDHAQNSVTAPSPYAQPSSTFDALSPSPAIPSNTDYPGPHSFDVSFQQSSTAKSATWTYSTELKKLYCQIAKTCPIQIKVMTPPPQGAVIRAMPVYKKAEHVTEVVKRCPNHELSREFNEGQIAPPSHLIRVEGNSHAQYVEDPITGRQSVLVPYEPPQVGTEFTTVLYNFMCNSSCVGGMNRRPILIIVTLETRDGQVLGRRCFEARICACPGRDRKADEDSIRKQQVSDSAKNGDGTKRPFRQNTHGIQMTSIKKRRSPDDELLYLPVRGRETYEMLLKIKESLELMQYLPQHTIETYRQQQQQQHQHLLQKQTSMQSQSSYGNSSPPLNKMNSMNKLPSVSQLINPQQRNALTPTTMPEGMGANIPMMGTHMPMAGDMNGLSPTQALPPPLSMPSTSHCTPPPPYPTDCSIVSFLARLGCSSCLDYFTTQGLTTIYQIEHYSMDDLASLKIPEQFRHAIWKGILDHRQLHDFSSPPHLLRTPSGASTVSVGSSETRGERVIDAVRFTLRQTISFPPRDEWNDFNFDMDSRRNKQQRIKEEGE

T2: MBP-TAp63αR (Mus musculus, UniProt O88898 40-680, R318H)
T2 sequence: T1 sequence with R279H

B1: p21 promoter response element (dsDNA)
DNA 1: GGCAGGAACATGTCCCAACATGTTGAGCCG
DNA 2: CGGCTCAACATGTTGGGACATGTTCCTGCC
B2: SELEX-based p63 binding sequence (dsDNA)
DNA 1: CCTATTCTAGACATGTGAGGACATGTCGATACTTATTCC
DNA 2: GGAATAAGTATCGACATGTCCTCACATGTCTAGAATAGG
B3: random sequence (dsDNA)
DNA 1: CGAGTTGTAAGTCGAATTGATACCATAATGCACTACACG
DNA 2: CGTGTAGTGCATTATGGTATCAATTCGACTTACAACTCG

Experiments:
[1] = biological target: T1, MBP-TAp63α; test: fluorescence anisotropy; two-site fit, monomer concentration; second-site KD negative, uninterpreted; 10 mM potassium phosphate pH 7.6, 200 mM NaCl, room temperature, 30 min; 15 nM p21 DNA (300 nM for controls), protein 0.1-15 µM monomer; details: protein: recombinant; tags: N-term MBP; C-term His6; chain copies: 2; label: 5'-fluorescein
[2] = biological target: T2, MBP-TAp63αR; test: fluorescence anisotropy; 300 nM DNA; 10 mM potassium phosphate pH 7.6, 200 mM NaCl, room temperature, 30 min; 15 nM p21 DNA (300 nM for controls), protein 0.1-15 µM monomer; details: protein: recombinant; tags: N-term MBP; C-term His6; chain copies: 4; label: 5'-fluorescein
[3] = biological target: T1, MBP-TAp63α; test: as above; details: protein: recombinant; tags: N-term MBP; C-term His6; chain copies: 2; label: 5'-fluorescein

Binder	Kd [1] [µM]	binding result [2]	binding result [3]
B1	7.51 ± 1.32		
B2		no binding	
B3		no binding	no binding
